In US20040253685A1:
Blank lines part the entries; values can stand above or below the substance they belong to.

Experiments:
[1] = molecular target: T1, wild type bovine endothelial nitric oxide synthase (eNOS) (bovine) (UniProt P29473); experiment: cell-based or functional assay
T1 sequence (looked up): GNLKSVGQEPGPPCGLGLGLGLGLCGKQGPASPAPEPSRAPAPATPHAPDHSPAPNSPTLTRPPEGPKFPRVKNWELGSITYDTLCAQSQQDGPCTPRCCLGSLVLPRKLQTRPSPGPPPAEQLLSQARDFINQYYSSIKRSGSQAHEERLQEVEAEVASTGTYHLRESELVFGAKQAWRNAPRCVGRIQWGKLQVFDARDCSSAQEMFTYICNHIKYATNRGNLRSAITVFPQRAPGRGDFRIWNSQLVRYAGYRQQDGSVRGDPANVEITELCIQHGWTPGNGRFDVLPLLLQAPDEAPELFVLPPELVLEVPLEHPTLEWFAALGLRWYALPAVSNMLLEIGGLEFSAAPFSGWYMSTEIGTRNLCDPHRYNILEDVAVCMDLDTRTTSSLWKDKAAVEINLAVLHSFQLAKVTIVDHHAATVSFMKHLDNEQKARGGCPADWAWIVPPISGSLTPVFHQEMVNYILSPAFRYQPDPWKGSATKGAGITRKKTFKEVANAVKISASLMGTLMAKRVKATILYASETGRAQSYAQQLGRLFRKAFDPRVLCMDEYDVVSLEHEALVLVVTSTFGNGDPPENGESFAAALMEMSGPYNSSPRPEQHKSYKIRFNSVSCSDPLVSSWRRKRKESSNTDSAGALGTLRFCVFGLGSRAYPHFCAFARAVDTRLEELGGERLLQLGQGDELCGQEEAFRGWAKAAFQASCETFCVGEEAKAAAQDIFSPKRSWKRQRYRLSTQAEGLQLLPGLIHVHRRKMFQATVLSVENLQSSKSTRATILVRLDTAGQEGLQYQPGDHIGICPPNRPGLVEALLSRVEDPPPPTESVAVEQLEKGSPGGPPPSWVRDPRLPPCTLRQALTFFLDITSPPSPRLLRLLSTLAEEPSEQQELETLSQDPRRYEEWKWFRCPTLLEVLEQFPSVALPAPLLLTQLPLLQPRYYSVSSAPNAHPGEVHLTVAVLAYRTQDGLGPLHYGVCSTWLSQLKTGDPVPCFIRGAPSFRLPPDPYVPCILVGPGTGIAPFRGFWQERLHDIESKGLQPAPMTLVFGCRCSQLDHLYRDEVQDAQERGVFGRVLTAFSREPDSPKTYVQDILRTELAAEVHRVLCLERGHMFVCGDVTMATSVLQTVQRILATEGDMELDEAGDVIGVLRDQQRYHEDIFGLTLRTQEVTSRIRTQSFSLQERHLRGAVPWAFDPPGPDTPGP

[2] = molecular target: S1179D eNOS (bovine) (bovine) (UniProt P29473); experiment: cell-based or functional assay

cGMP accumulation (assayed in COS cells) [1]: 5.8 pmol cGMP
Substance: HA-tagged kinase inactive Akt (K179M) (enzyme)

phosphorylation of eNOS in 32P-orthophosphate labeled COS cells [1]: 2 fold
Substance: HA-tagged wild-type Akt (protein kinase B) (enzyme)

EC50 for CaM, NADPH-mediated cytochrome c reduction as a function of CaM concentration [1]: 13 nM
EC50 for CaM, NOS activity (L-Citrulline) as a function of CaM concentration [1]: 8 nM
EC50 for CaM, NADPH-mediated cytochrome c reduction as a function of CaM concentration [2]: 21 nM
EC50 for CaM, NOS activity (L-Citrulline) as a function of CaM concentration [2]: 7 nM
Substance: calmodulin

cGMP accumulation (assayed in COS cells) (pmol cGMP/mg protein) [1]: 11.6
Substance: constitutively active form of Akt (myr-Akt) (enzyme)
